In paper PMC11153135 one finds Kd data, which are given here for one substance.

The assay concerns the target purified human SLAMF4 (hSLAMF4) protein, recombinant (human) (UniProt Q9BZW8). Kind of assay: MST; Monolith NT.115; GST–lytC_22 in a gradient (11 to 0.34375 μg μl^-1) mixed 1:1 (vol/vol) with 0.2 μg μl^-1 fluorescently pre-labelled recombinant Slamf4, 30 min at room temperature; medium MST power; apparent.
Chain of UniProt Q9BZW8 (Q9BZW8 22-229): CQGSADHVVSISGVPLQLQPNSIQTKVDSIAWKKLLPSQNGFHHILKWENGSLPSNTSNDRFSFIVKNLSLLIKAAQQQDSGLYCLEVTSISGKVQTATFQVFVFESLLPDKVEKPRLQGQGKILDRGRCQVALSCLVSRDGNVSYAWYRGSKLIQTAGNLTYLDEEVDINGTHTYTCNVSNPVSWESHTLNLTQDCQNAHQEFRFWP

Consider “GST–lytC_22 (recombinant glutathione S-transferase-tagged N-acetylmuramoyl-L-alanine amidase lytC_22 of P. anaerobius) (natural protein)”, for which the Kd stood at 0.0401 µM.
